Measured values from a protein production outcome set (Wang et al. 2014).

Experiment: label from the status in PepcDB records
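Note: failed if final PepcDB status was selected cloned or expressed and not failed if soluble or beyond.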

VTIDNIQKTVAEYYKIKVADLLSKRRSRSVARPRQXAXALAKELTNHSLPEIGDAFGGRDHTTVLHACRKIEQLREESHDIKEDFSNLIRTLSS
protein production: not failed

MKMYEVKEFSSGKRKLEDYKSIIGEEEVSKIQEKAEKLKGRSFVHVNSTSFGGGVAEILHSLVPLLRSIGIEARWFVIEGPTEFFNVTKTFHNALQGNESLKLTEEMKELYLNVNRENSKFIDLSSFDYVLVHDPQPAALIEFYEKKSPWLWRCHIDLSSPNREFWEFLRRFVEKYDRYIFHLPEYVQPELDRNKAVIMPPSIDPLSEKNVELKQTEILRILERFDVDPEKPIITQVSRFDPWKGIFDVIEIYRKVKEKIPGVQLLLVGVMAHDDPEGWIYFEKTLRKIGEDYDVKVLTNLIGVHAREVNAFQRASDVILQMSIREGFGLTVTEAMWKGKPVIGRAVGGIKFQIVDGETGFLVRDANEAVEKVLYLLKHPEVSKEMGAKAKERVRKNFIITKHMERYLDILNSLGGLEHHHHHH
protein production: not failed

MFVSLLPLLLLTLVVGTLAGGEAFAERIVTAAGDVLTPAASTLLEDALTSGAGRGGATVLGVGVTLWSALKVFRGLDTAFSRVYGTDGPDSIVREIVDGLAALGGIGIALVGLGIIGAFGTVLGVQVALGGLALVPVLAVAFLPLYYLFPDQEMTLREAVPGAVFAGGGWTLLGTGFNVYAAQADSYQVYGVIGGVLLLVTWFYFAGQVLLVGAAVNAALADRQLQQVSRRRSGKAMSEDADETDTPPPAGTGPTGRDTDTLTDEELQELREEFESFREDIEGRTLHRDEVRSDLKQYVRRRMRRGHARQWGPYIVLLYGTIMTLGAFYYLKGLWAVLAMLVIWLSVLGLYAIMIAVGVTLTATGLPGRLVDRVRDWRQ
protein production: failed

MTIPLIIGGVLLAILILLILVFITKYRTVGPDEALIVTGNWLGGGKNVVTTDDGKKIKIIRGGGTFVVPIMQRAEPLSLLNYKLEVGTRDTYTKQGVPVTVNGVSIIKVGSTIEEVSTAAEQYLGKETEELKVEAKEVLEGHLRAILSSMTVEDAYSNREQFAQKVHEVASTDLKKMGLRIVSFTIKEIMDKNGYLDALGQPQIATVKRDATIANAEREKEARIEKARAEKEAKEAEYQRDAQIAEAEKHKELKVQSYKREQEQARADADLSYELQQAKAQQGVTEEQMRVKIIEREKQIELEEKEIARREKQYDAEVKKKADADRYAVEQSAEAEKVKQIKKADADQYKIEAEARARAEEVRVEGLAKAEIEKAQGQAKAEVQKAQGTAEADVIRLKGLAEAEAKQKIAEAFELYGQAAIMDMVLKMLPSYAKEVASPLSNIDKITVVDTGGGGKNSGAGKVAGYATDLMATMQETLKASSGIDLKELLEGFAGKGAVQQLSSDKPVVSVVEDKKKEVEKDKE
protein production: failed

MWPASRCASDSSLQCGRPNDRIPMSDIAVLINTAVAVLAAVLLIVRFRVNPVISLILASVYLGLAVGLGVEKTVKTITGGFGEIMVDVGLLIAFGVLMGSILNQSGAIRRLVEHLLKTFGPKRLPYTMGLAIGTVLQSIFLDVLLVISAPLARKLAPKIGKLGTARMATAMAIALECGIVFTVPGVASLALAGLLNVPLGKMLLFGLLLVIPTIIISIAIMTFLFRRGFWNEAKDEDHTFVAEEDSEGEEPTDGGAATVPPTANSERGTAASSAQPAGGSVAVVERERKEAPLILLFAPLLTSLLLIGAGAILEILEISMPWLQLLGEPVIALLIGLIGTCLVTRAAIGQKKVEEAIAVGFKESGQILILTGVGGSLAATVAAAGLGDILGGFFSASTVAPLLVVWAIAAVLHIAVGSVTLSAITAAGLLAPIAPAIGLDPVLLALAAGAGSLFMVHVTSNTFWLLQSLLGQSVRGALKSVTVGVSVASVVAILLILPMSLLF
protein production: failed

MEANTSSSGTVTGQRFAERRRSLPPGAELRQRLLKQLKELCDQIGKAYSTLVQKAALVIEPADQAVSLEPDTQRQATCITNLSDEGELWTTVYELNLGVQNLLMFIEDIRLLLLTQAQVPGPSVEENGLKTAGKGGCSPTELEGARFSDRLSSSNTHRFLEQLWDRYTP
protein production: not failed

TNWASGEDDHVVARAEYDFVAVSDEEISFRAGDMLNLALKEQQPKVRGWLLASLDGQTTGLIPANYVKILGKRRGRKTIE
protein production: not failed

MSPRRSAAEAQATRGRILGRAAEIASEEGLDGITIGRLAEELEMSKSGVHKHFGTKETLQISTLDKAFVDFWHRVVEPALAEPPGLRRLRAVCANSVGYLEEPLLPGGCLLTAALSEYDGRPGRVRDAVAEVWSRWREQLRADLTAAVDKGELPAGFDVEQALFEIVAAGLALNAAMQLQHDRTAADRARRAIERALAQS
protein production: not failed

SLENLATAPVNQIQETISDNCVVIFSKTSCSYCTMAKKLFHDMNVNYKVVELDLLEYGNQFQDALYKMTGERTVPRIFVNGTFIGGATDTHRLHKEGKLLPLVHQCYLKKSKRKEFQ
protein production: not failed

FRPVMPSRQIVERQPRMLDFRVEYRDRNVDVVLEDTCTVGEIKQILENELQIPVSKMLLKGWKTGDVEDSTVLKSLHLPKNNSLYVLTPDL
protein production: failed

MLIIAILCLGLLVAQGVASLILLSRLVKGARRRSPLAPVFLPEEGVRNVSVVVPTLNEAARVTPCLLGLAQQGPPLREILVVDSRSTDGTQAVVQARQKDNPRLQLLTDDPLPDNWVGRPWALNYGFRHSDPASEWILGIDADTQPQPGLVASVVQAAEEENYDILSLSPQFILQSPGEWWLQPALLMTLLYRFESAGVREQAPETVMANGQCFLCRRLVLEALGGYELAARSFCDDVTLARVAAQRGYRVGFLDGANLIRVRMYEGIGETWREWGRSLDLKDATVPARLWAEVIFLLLVQGLPILFFSLLLMLWGEDFDFLTLRLAIALNGFLLLVRWGMLLAIYPSYYRPSEKGAWSYWLSPLADPLAVTRIIISASQTPKQWRGRIYPGAS
protein production: failed

MDGDGSSFEQFIMPPSALDRLASLHIEYPMLFQLSNVSVEKTSHCGVLEFTADEGLVYLPYWMMQNMSLEEGDVMQVKNISLVKGTYIKLQPHTQDFLDISNPKAILETTLRSYSCLTTGDTIMVPYNNKQYYINVVEAKPSSAVSIIETDCEVDFAPPLDYKEPEKPQKLTPSNKRPLQVKEEEEPASKVPKFTPFTGSGKRLDGKAQTQTEPEDTKQQEKPTENGKDDEKLSVTTPRQISGKLVFGSNSKSAAKETAKVDDPKNIVQESSTKSDEAKFKVFTGKKYSLNG
protein production: failed

MDLKILSLATDKTTDKLQEFLQTLKDDDLASLLQNQAVKGRAVGTLLRAVLKGSPCSEEDGALRRYKIYSCCIQLVESGDLQQDVASEIIGLLMLEVHHFPGPLLVDLASDFVGAVREDRLVNGKSLELLPIILTALATKKEVLACGKGDLNGEEYKRQLIDTLCSVRWPQRYMIQLTSVFKDVCLTPEEMNLVVAKVLTMFSKLNLQEIPPLVYQLLVLSSKGSRRSVLDGIIAFFRELDKQHREEQSSDELSELITAPADELYHVEGTVILHIVFAIKLDCELGRELLKHLKVALRCF
protein production: failed

MSKFYSEQFKRDAVALYENNENLSLAAAAAELRVNRASLHQWKKELGTGKRTRMIEAKAQAEAASDAERIRALEKENAKLREERDILRKAAKYFAEETSWLEHHHHHH
protein production: failed

MQEYIEFFKAHTLLSLAWVGLFVMLVVSVIKSSFSKIKNVTHQELTIMVNRQDAKVVDVRSNDDFRKGHIVGAVNVTLADIKNNQVSALEKFKGSPIILVCNAGMTSSQAAQLLSKQGFENLYNLKGGMGEWQAANMPVSKSKR
protein production: failed

MGLVVSARSVSPLKKWPSRVRSFSINMGQPKSGQGWKLGACCPANRHNRERTRSCAPAGLTCLRPAPAPWACLGLDLCPSLGLDLGPSLGLALRSGPAEETMDPAGRARGQGATAGGLLLRAAAAAKGLREDLWGAAALPWRSLSRIPKREGLGEEDTAVAGHELRESRDEVSENQAAGRAGSKGLEKVPRAAPPDAAGGKLARRLSPGTPSPSLHRCTPLLPNERSFQNAAKSNNLDLMEKLFEKKVNINVVNNMNRTALHFAVGRNHLSAVDFLLKHKARVDVADKHGLTVIHLAAWSGSLEVMLMLVKAGADQRAKNQDGMSALHFATQSNHVRIVEYLIQDLHLKDLNQPDEKGRKPFLLAAERGHVEMIEKLTFLNLHTSEKDKIQWSTLWTAALTKMKTSRNSIAALTIEGACSPGTGVSTSSVSLLQGGNTALHLAAKHGHSPAVQVLLAQWQDINEMNELNISSLQIATRNGHASLVNFLLSENVDLHQKVEPKESPLHLVVINNHITVVNSLLSAQHDIDILNQKQQTPLHVAADRGNVELVETLLKAGCDLKAVDKQGKTALAVASRSNHSLVVGMLIKAERYYAWREEHHESIRDPSTGFTLTFKQDHSLETRHIRTLLWDLAYHQLKANEWQRLARSWNFTDDQIRAIEEQWSDENLGNIESLLGINQLISFENNEANMFLGKVFYSEHCPLMDILRREGVLAQGSICIRDCWELGMAEAQSMSTHYLYHIQEAVYRNIILTSYSPSVVLAVAHTEYGTMEGACKLSAASPLGNDPVNTGYSLAWQFCVIPLLSI
protein production: failed

MKRFIVRAVLILVSFVLLIQLWIFCSLAWWRTHPVETTMFMRLDYWSDSSKPIQQQWRDYDEISDNFKKAVVAAEDGKFVHHHGFDWEGIQYALEKNEKSGEVVNGGSTISQQLAKNLFLYNQRSLIRKGQEAIATWMMERMWSKQRILEVYMNSVQFGDHLYGVEAASHYYFHRSAQNLTRDQAAFLAALLPNPKYYQENRNDPRFKFKKRFTLKYMRYSEIP
protein production: failed

MSLRITRIRLYKTDLPYVDGSYGWGAGNAITVARASVVVIDTDAGLQGCGEFTPCGENYMIAHSEGVDAFARLAAPQLLGQDPRQVARMERLMDHLVQGHGYAKAPFDAAFWDILGQATGQPVWMLLGGKLCDGAPMYRVAPQRSEAETRAELARHRAAGYRQFQIKVGADWQSDIDRIRACLPLLEPGEKAMADANQGWRVDNAIRLARATRDLDYILEQPCRSYEECQQVRRVADQPMKLDECVTGLHMAQRIVADRGAEICCLKISNLGGLSKARRTRDFLIDNRMPVVAEDSWGGEIASAAVAHFAASTPEEFLINSTDLMNYNTRSTGLGGPTVHQGRLYASDTPGLGVTPDFNSLGAPVADWALPEGHHHHHH
protein production: not failed

KGKIQEADNAAKLSAIKFVLKDPLTGDYLVDEKEIEEIVKKTGIETVVLKEYKEGVVLGPLYEFVTKDGRNAYVLSGYAPGFGGNVTVVACFIKTEDGFMLNSVRVIDYSQETPGLGAKIGEESIQRRFFPVPPEGLKNGLRVDKDAGLPKGSPEELKKQGIVKVSDVMTGATITPRAVVTALNLMYRYLEEVSK
protein production: not failed

MDAAHRHGVPVLGNIFLPPVAYGGQLQWTRDLVQKDATGHYPLAAQLVAVADAYGFDGWFVNAETSGGNTALATDMRGFLQELKALGTAKGQRVTWYDSMTATGSVSWQGALNSQNQAFFQAADSMFVDFRWSKSTLASSGTLAGQLGRSRYELWAGVDVESNGTSTSVNWDAIVPSASAHVVSLGFYRPEWTRNHLPANRTPGDFHAADDLFWTGASLDPAKPNTTASWRAPALRVADRSTVDSLPFATVFNTGHGLKWYEGGEVTSDTAWNHLGLQDRLPSRRWIVRTSGARPSVTFDFADAWRGGSSVLVAGTLGAPATLDLYETRLPVGSSETVVELTHRTDAGSAQIELAVATAEPSAPGQAPSYTYFPVSSGDGWGTSTVRLTGLSGTVRTLAVRLTGSGSPVRWRLGALAVKNAPAEPAAPTGLRVTDADGGSLRFSWQPAAGEVRHYELHRVLADGTRRFLGGTCQCAYYVAGLAAEQGESAARFELRAVGELYTESTATTTTHPW
protein production: failed

QQMETGDQRFGDLVFRQLAPNVWQHTSYLDMPGFGAVASNGLIVRDGGRVLVVDTAWTDDQTAQILNWIKQEINLPVALAVVTHAHQDKMGGMDALHAAGIATYANALSNQLAPQEGMVAAQHSLTFAANGWVEPATAPNFGPLKVFYPGPGHTSDNITVGIDGTDIAFGGCLIKDSKAKSLGNLGDADTEHYAASARAFGAAFPKASMIVMSHSAPDSRAAITHTARMADKLR
protein production: not failed
